Common to all, as to test: EMSA
The target in one data set is rGST APE1 WT (human, UniProt P27695 1-318).
The target in another data set is rGST hnRNPA2B1 (UniProt P22626 1-353).
For data set [1], the target named is rGST APE1 NdeltaN33 (APE1NΔ33) (human, UniProt P27695 34-318, del1-33).
rGST APE1 NdeltaN33 (APE1NΔ33), sequence (P27695 34-318, stated change not applied): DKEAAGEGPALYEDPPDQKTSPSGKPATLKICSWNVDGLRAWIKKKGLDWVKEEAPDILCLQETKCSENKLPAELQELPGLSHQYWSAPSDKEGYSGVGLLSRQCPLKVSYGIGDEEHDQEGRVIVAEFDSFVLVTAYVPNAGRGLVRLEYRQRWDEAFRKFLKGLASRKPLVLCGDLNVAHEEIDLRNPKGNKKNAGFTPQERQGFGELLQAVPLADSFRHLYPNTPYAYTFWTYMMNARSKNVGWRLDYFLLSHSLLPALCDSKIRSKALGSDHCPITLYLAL

rGST APE1 WT, sequence (P27695 whole entry): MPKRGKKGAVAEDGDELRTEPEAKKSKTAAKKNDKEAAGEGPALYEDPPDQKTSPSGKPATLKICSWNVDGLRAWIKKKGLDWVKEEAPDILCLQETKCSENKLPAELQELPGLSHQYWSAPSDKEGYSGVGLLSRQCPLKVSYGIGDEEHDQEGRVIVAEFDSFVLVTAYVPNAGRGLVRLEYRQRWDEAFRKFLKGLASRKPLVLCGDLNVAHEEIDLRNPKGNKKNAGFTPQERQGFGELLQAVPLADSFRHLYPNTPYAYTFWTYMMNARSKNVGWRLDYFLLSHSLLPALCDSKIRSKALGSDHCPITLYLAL
rGST hnRNPA2B1, sequence (P22626 whole entry): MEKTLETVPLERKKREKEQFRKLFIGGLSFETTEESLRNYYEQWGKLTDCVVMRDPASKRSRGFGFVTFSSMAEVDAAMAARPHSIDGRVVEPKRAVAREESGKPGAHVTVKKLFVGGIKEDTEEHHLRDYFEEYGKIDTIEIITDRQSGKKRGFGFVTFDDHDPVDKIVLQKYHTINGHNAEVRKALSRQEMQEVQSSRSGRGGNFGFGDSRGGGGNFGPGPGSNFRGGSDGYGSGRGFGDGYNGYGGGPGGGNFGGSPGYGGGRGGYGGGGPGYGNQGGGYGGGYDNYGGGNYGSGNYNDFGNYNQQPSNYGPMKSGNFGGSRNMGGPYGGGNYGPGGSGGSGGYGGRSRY

B1: EXO-miR (ssRNA)
RNA: GGGGAGGUUAGGGAGGAGGGGGGUAGGCGCC
On to B1, for which the binding result with rGST APE1 WT and with rGST hnRNPA2B1 was “binds” throughout.

B2: scrEXO-miR-1246 (ssRNA)
RNA: GUGUGUACGGAUUGUAGAA
Take B2: the binding result with rGST APE1 WT is on record as “no binding”.

B3: hsa-miR-1246 (ssRNA)
RNA: AAUGGAUUUUUGGAGCAGG
B3: the binding result in data set [1] is “no binding”; in the data set with rGST APE1 WT it was “binds”; with rGST hnRNPA2B1, “binds”.

The values above are taken from paper doi:10.1101/2024.02.02.578563.
